From paper PMC5483177 (Cell reports, 2016)
Positions count from the first letter of the chain named. Names may count otherwise. Like-named read-outs stand apart in the source and are kept apart here.

B1: WAH-1 (residues 214 to 700), His-tagged (domain or fragment, C. elegans, UniProt Q9U229 214-700, looked up)
chain: SEQQSMKPSESTEENTTTTSADGLLHCEYVIIGSGTAAYYASLSIRAKQAEAKVLMIGEEPELPYNRPPLSKELWWYGDETSATKLAYTPLSGKKRDIFYEVDGFFVSPEDLPKAVHGGVALLRGRKAVKICEEDKKVILEDGTTIGYDKLLIATGVRPKKEQVFEEASEEAKQKITYFHYPADFKRVERGLADKSVQKVTIIGNGLLASELSYSIKRKYGENVEVHQVFEEKYPAEDILPEHIAQKSIEAIRKGGVDVRAEQKVEGVRKCCKNVVLKLSDGSELRTDLVVVATGEEPNSEIIEASGLKIDEKLGGVRADKCLKVGENVWAAGAIATFEDGVLGARRVSSWENAQISGRLAGENMATAAADGKSEGKAFWYQPSFFTKFAPHLHINAIGKCDSSLETVSVHAEPDKDTPLEKAVVFYKSKEDGSIVGVLLLNVFGPSLDVARRIIDDRKKVDEYKEIAKLFPLYDPVKSDEDDAKSA
B2: CPS-6(H148A) (residues 63-305), His-tagged (enzyme, C. elegans, UniProt Q95NM6 63-305, looked up)
chain: PSRSAEIMKHGYPGFTNVRTYEDFVLSYDYKTRTAHWVCEHLTPERLKHAEGVDRKLCEFKPDITFPQKFLSQNTDYKCSGFDRGALAAAGNHRKSQLAVDQTFYLSNMSPQVGRGFNRDKWNDLEMHCRRVAKKMINSYIITGPLYLPKLEGDGKKYIKYQVIGDNNVAVPTHFFKVALFEVTPGKFELESYILPNAVIEDTVEISKFHVPLDAVERSAGLEIFARLDPKSIVKENGAKKGG
B3: wild-type CPS-6 (residues 63-305), His-tagged (enzyme, C. elegans, UniProt Q95NM6 63-305, looked up)
chain: B2 chain with A86H

Columns and labels:
[1] = molecular target: B2; experiment: other fluorescence titration
SEC [2] = molecular target: the molecule itself; experiment: SEC
[3] = molecular target: B1; experiment: other fluorescence titration
SEC [4] = molecular target: the molecule itself; experiment: SEC; remark: listed apart in the source

| stoichiometry N [1] | Kd [3] [nM] | Binder | stoichiometry N (SEC [2]) | stoichiometry N (SEC [4]) |
| --- | --- | --- | --- | --- |
| 1 |  | B1 | 2 |  |
|  | 69.8 ± 2.8 | B2 |  | 2 |
|  |  | B3 |  | 2 |
